Data on one molecule can be found in patent US20250154240A1, “ANTI-HUMAN CXCL1 ANTIBODY” (CHIOME BIOSCIENCE INC., priority 2022, published 2025).

Test [1] addresses T1, HuCXCL1 (Homo sapiens, UniProt P09341).
T1 construct: made in house; host or cells: Expi293 expression system (transient), protein from the culture supernatant
T1 sequence (P09341 35-107): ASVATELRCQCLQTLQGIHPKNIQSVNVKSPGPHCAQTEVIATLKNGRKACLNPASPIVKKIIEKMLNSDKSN
Description: FACS, inhibition of binding of APC-labeled HuCXCL1 to HEK293 cells forced to express HuCXCR2. It counts as cell-based. The note with it: APC-labeled ligand 10 μg/mL; HEK293 cells expressing HuCXCR2. How it is done: (§1) Chemokines are stabilized by directly binding to GAG on the cell surface and thereby allow efficient signal transduction to their receptors. […] Then, to evaluate whether Hu5A-5E11 inhibits the binding of CXCLs to cells, the binding of fluorescently labeled CXCLs to cells was measured as fluorescence intensity by flow cytometry in FACS. For this purpose, HEK293 cells forced to express HuCXCR2 were used. For use as HuCXCL1, 2, 3 and 5 and MsCXCL1, the proteins in above were labeled with APC.
(§2) The cultured cells were detached and washed with PBS, and then suspended at 5.0× 10^5 cells/mL in PBS containing 1% BSA (hereinafter referred to as the FACS buffer). Each of the APC-labeled ligands and Hu5A-5E11 were mixed at final concentrations of 10 μg/mL and 16.7 μg/mL, respectively, and reacted at room temperature for 30 minutes, and then added to the cell suspension and reacted on ice for 30 minutes. After washing with the FACS buffer, the cells were suspended again in PBS containing 1% 7-AAD, 0.5% BSA and 2 mM EDTA, followed by the above flow cytometry to measure fluorescence intensity.
(In general: Flow cytometry measures light scatter and fluorescence of single cells or particles in a stream.)

For test [2], the target named is T2, HuCXCL3 (Homo sapiens, UniProt P19876).
T2 construct: purchased PROTEINTECH
T2 sequence (P19876 35-107): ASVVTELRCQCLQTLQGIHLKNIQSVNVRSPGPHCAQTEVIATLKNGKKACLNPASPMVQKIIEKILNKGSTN
The test can be described thus: FACS, inhibition of binding of APC-labeled HuCXCL3 to HEK293 cells forced to express HuCXCR2. Type of test: cell-based. The note with it: APC-labeled ligand 10 μg/mL; HEK293 cells expressing HuCXCR2. How it is done: as §1, §2

In test [3] the target is T3, MsCXCL1 (Mus musculus, UniProt P12850).
T3 sequence (P12850 25-96): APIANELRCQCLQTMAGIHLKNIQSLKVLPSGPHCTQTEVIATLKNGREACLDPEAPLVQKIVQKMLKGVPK
The test can be described thus: ELISA, inhibition of binding of MsCXCL1 to GAG (heparin, heparan sulfate). It counts as biochemical. More on the design: purchased PROTEINTECH
The note with it: antibody 0 to 10 μg/mL; biotin-labeled heparin or heparan sulfate 10 μg/mL. How it is done:
Thus, the effect of Hu5A-5E11 on the binding of CXCLs to GAG was evaluated by ELISA assay using plates on which the antigen (HuCXCL1 protein) used for immunization or HuCXCL2, 3 and 5 and MsCXCL1 and 2 proteins had been directly immobilized. CXCLs other than HuCXCL1 were purchased from PROTEINTECH and used. Biotin-labeled heparan sulfate and heparin were purchased from PG Research and used.
To 96-well plates, phosphate-buffered saline (PBS) containing 3 μg/mL of HuCXCL1, 2, 3 or 5 or MsCXCL1 or 10 μg/mL of MsCXCL2 was added in a volume of 50 μL per well, and the plates were allowed to stand overnight at 4° C. After removal of the antigen solutions, PBS containing 0.05% Tween-20 (hereinafter referred to as the blocking solution) was added to each well for blocking reaction, and the plates were allowed to stand at room temperature for 30 minutes. […] TMB (Dako) was added as a chromogenic substrate solution to cause color development, and 1 N sulfuric acid was added to stop the reaction, followed by measurement of absorbance at 450 nm. The binding rate of CXCLs to GAG was calculated as a ratio relative to the absorbance measured in the absence of the antibody, which was set to 100%.

In test [4] the target is T4, HuCXCL5 (Homo sapiens, UniProt P42830).
T4 sequence (P42830 37-114): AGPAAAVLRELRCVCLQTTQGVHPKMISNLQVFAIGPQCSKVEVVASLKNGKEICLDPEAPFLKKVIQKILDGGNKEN
Description: FACS, inhibition of binding of APC-labeled HuCXCL5 to HEK293 cells forced to express HuCXCR2. More on the design: purchased PROTEINTECH; host or cells: CXCR2: transfected HEK293 cells. The note with it: APC-labeled ligand 10 μg/mL; HEK293 cells expressing HuCXCR2. Type of test: cell-based. The procedure:
as §1, §2

B1: Hu5A-5E11: humanized antibody VH1/VL1; VH SEQ ID NO: 76, VL SEQ ID NO: 78 (antibody, V domains shown)
VH: QVQLVQSGAEVKKPGSSVKVSCKASGYAFSDYWMNWVRQAPGQGLEWIGQIYPGSGDTNYNAKFKGKGTITADKSTSTAYMELSSLRSEDTAVYYCARERDYDVAMDYWGQGTTVTVSS
VL: DIQMTQSPSSLSASVGDRVTITCKASQDINKYIAWFQQKPGKAPKLVIHYTSILQPGVPSRFSGSGSGTDYTFTISSLQPEDIATYYCLQYDNLPWTFGGGTKVEIK
For the molecule B1, the “Inhibitory activity against the binding of HuCXCL1 to cells (fluorescence intensity)” value in test [1] is “reduce the fluorescence intensity of the cells in an antibody concentration-dependent manner”. The “Inhibitory activity against the binding of HuCXCL3 to cells (fluorescence intensity)” value in test [2] is recorded as “reduce the fluorescence intensity of the cells in an antibody concentration-dependent manner”. For the same molecule, the “Inhibitory activity against the binding of MsCXCL1 to GAG” value in test [3] is “inhibit the binding of HuCXCL1, 2, 3 and 5 and MsCXCL1 to GAG in an antibody concentration-dependent manner”. For the same molecule, the “Inhibitory activity against the binding of HuCXCL5 to cells (fluorescence intensity)” value in test [4] is listed as “reduce the fluorescence intensity of the cells in an antibody concentration-dependent manner”.
